Two molecules from publication PMC10397247 can be followed below.

What all share (test): two-hybrid library CCmax;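 note: natural log of median RNA to DNA barcode read ratio; higher means stronger binding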
In assay [1] the target is T1, APC3354-AA.
T1 chain: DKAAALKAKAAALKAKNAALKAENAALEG

The target in assay [2] is T2, APC5009-AA.
T2 chain: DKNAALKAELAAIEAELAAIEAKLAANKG
The conditions noted are these: mean of both orientations.

The target in assay [3] is T3, APC8516-AA.
T3 chain: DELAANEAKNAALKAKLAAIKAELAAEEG
The settings on record: mean of both orientations.

Assay [4] concerns the target T4, APC8401-AA.
T4 chain: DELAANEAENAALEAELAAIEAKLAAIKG
The settings on record: mean of both orientations.

The target in assay [5] is T5, APC4336-AA.
T5 chain: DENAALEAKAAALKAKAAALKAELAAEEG
The conditions noted are these: mean of both orientations.

In assay [6] the target is T6, APC5531-AA.
T6 chain: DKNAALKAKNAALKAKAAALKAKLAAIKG
The conditions noted are these: mean of both orientations.

Assay [7] has as its target T7, APC3881-AA.
T7 chain: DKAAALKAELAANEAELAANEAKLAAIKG
The conditions noted are these: mean of both orientations.

Assay [8] concerns the target T8, APC4100-AA.
T8 chain: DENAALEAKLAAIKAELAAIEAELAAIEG
The settings on record: mean of both orientations.

Assay [9] concerns the target T9, APC9141-AA.
T9 chain: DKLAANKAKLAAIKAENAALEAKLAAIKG
The settings on record: mean of both orientations.

Assay [10] has as its target T10, APC542-AA.
T10 chain: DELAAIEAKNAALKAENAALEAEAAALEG
The settings on record: mean of both orientations.

In assay [11] the target is T11, APC7524-AA.
T11 chain: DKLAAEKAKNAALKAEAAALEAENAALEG
The conditions noted are these: mean of both orientations.

Assay [12] deals with T12, APC9182-AA.
T12 chain: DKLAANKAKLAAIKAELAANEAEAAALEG
The settings on record: mean of both orientations.

Assay [13] has as its target T13, APC9806-AA.
T13 chain: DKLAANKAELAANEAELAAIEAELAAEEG
The conditions noted are these: mean of both orientations.

Assay [14] addresses T14, APC9291-AA.
T14 chain: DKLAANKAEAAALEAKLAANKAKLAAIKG
The settings on record: mean of both orientations.

Assay [15] has as its target T15, APC6088-AA.
T15 chain: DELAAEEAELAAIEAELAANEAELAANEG
The settings on record: mean of both orientations.

Assay [16] has as its target T16, zCON9_B.
T16 chain: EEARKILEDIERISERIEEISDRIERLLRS

Assay [17] deals with T17, zCON9_D.
T17 chain: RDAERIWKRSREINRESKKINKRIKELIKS
The settings on record: mean of both orientations.

B1: APC3354-AA (peptide)
chain: DKAAALKAKAAALKAKNAALKAENAALEG
Take B1: the interaction score was -1.59 in [1]; -1.49 in assay [2]; -1.98 in assay [3]; -1.48 in assay [4]; -2.08 in [5]; -1.92 in assay [6]. Further, the interaction score is -1.72 in assay [7]; -1.66 in assay [8]; -1.68 in [9]; -1.89 in assay [10]; -1.71 in assay [11]; -1.72 in assay [12]. The values for the interaction score in [13], in assay [14] and in assay [15] were -1.33, -1.68 and -1.77, respectively.

B2: zCON9_B (peptide)
chain: EEARKILEDIERISERIEEISDRIERLLRS
In the case of B2, the interaction score in [16] is 2; in [17] it was -1.44.
